From PMC3631189

Tests used:
Assay in all cases: SEC; gel permeation chromatography on Superdex-200, purified receptors-Fc loaded in 400 µl, eluted in PBS, absorbance at 280 nm
atacicept = target: atacicept
hFn14-Fc (human) = hFn14-Fc (human) (UniProt Q9NP84)
hTACI-Fc = target: hTACI-Fc

atacicept (Fc fusion)
stoichiometry N (atacicept): 2

hFn14-Fc (from UniProt Q9NP84 28-80) (Fc fusion)
stoichiometry N (hFn14-Fc (human)): 2

hTACI-Fc (Fc fusion)
stoichiometry N (hTACI-Fc): 2
